The text below walks through data of patent US11168320.

This series addresses Thrombin (UniProt P00734+P00734). As to the kind of experiment: EMSA. The settings on record: 0.1 nM aptamer, thrombin 0.1-12.8 nM; more than half bound at 0.1 nM thrombin. On the technique in general: In EMSA bound probe runs differently from free probe, usually more slowly.

“NTAGGDTGGGTAGGGTGGTNAGGGWTGATGYGTGGTAGGC [Bivalent aptamer AD]”: the Kd is under 0.1 nM.

Broadly, the Kd is a measure of binding affinity in units of concentration. Lower therefore signals tighter binding.
